Reference: patent US20250320277A1 (ALBERT EINSTEIN COLLEGE OF MEDICINE, published 2025)

B1: DC2.M287 (antibody, V domains shown)
VH: EVQLVESGGGLVQPGGSLRLSCAASGFTFRDYWMIWVRQTPGKGLEWVANINRNGNEKHYVDSLKGRFTISRDNTKNSLYLQVNGLSAEDTAVYYCVRDSSPSFGPGNYYDAFDIWGQGTTVTVSS
VL: DIRVTQSPSSLSASVGDRVTITCRASQDIRNEVGWYQQKPGQAPKVLIFAASTLQSGVPSRFRGSGSGTVFTLTISSLQPEDLATYYCLQDFNYPRTFGQGTKVDIK
B2: DC2.M301 (antibody, V domains shown)
VH: QVQLVQSGAEVKKPGAAVKVSCKASGYTFSGYYIHWVRQAPGQGLEWMGWINPNSGGTDFAQKFQGRVTMTRDTSISTAYMELSRLRSDDTAVYLCSRDPGYTYGYPLGYWGQGTLVTVSS
VL: ETTLTQSPGTLSLSPGERATLSCRASQSVSSSYLAWYQQKPGQAPRLLIYGTSSRATGIPDRFSGRGSGTDFTLTISRLEPEDFAVYYCQQYGNSPPYTFGQGTKVDIK
B3: DC2.M17 (antibody, V domains shown)
VH: EVQLVESGSELKKPGASVRVSCEASGYSFTSHTIVWMRQAPGQGLECLGWINTNTGNPTYAQGFTGRFVFSLDTSVSTAYLQISSLKAADTAVYYCARVLKCLGGSASCSGHGYYDYGMAVWGQGTTVTVSS
VL: DIVLTQSPLSLPVTPGEPASISCRSSQSLLHSNGYNFLHWYLQKPGQSPQLLIYLGSIRASGVPDRFSGSGSGTDFTLKISRVEAEDVGVYYCMQALQTFMYTFGQGTKLEIK

Legend:
MAYV p62-E1 [1] = biological target: T1, MAYV p62-E1 (Mayaro virus (BeAr 20290)); test: ELISA, plate-coated p62-E1, eight-point mAb dilution
T1 construct: extracellular domain

MAYV p62-E1 [2] = biological target: T1, MAYV p62-E1
MAYV p62-E1 [3] = biological target: T1, MAYV p62-E1; test: BLI, […], global 1:1 fit; […]

| Binder | EC50 (MAYV p62-E1 [1]) | koff (MAYV p62-E1 [2]) | kon (MAYV p62-E1 [2]) | Kd (MAYV p62-E1 [3]) |
| --- | --- | --- | --- | --- |
| B1 | 220 nM |  |  |  |
| B2 | 4.6 nM | 0.0047 s⁻¹ | 300000 M⁻¹ s⁻¹ | 15 nM |
| B3 | 1.9 nM |  |  |  |
